Among the data in paper PMC8240473 (DNA repair, 2020) are Kd, dwell time and koff values, retold here.

B1: PCNA, purified (natural protein, yeast, UniProt P15873 1-258, looked up)
chain: MLEAKFEEASLFKRIIDGFKDCVQLVNFQCKEDGIIAQAVDDSRVLLVSLEIGVEAFQEYRCDHPVTLGMDLTSLSKILRCGNNTDTLTLIADNTPDSIILLFEDTKKDRIAEYSLKLMDIDADFLKIEELQYDSTLSLPSSEFSKIVRDLSQLSDSINIMITKETIKFVADGDIGSGSVIIKPFVDMEHPETSIKLEMDQPVDLTFGAKYLLDIIKGSSLSDRVGIRLSSEAPALFQFDLKSGFLQFFLAPKFNDEE
B2: N-terminally biotinylated peptide containing PIP1 of pol η (peptide)
chain: {Biotin-Ahx}-QKKQVTSSKNILSFFTRKK
B3: Rad6-Rad18 complex, purified (complex, yeast)
chain 1: MDHQITTASDFTTTSIPSLYQLDTLLRCHICKDFLKVPVLTPCGHTFCSLCIRTHLNNQPNCPLCLFEFRESLLRSEFLVSEIIQSYTSLRSSLLDALRIPKPTPVPENEEVPGPENSSWIELISESESDSVNAADDDLQIVATSERKLAKRSMTDILPLSSKPSKRNFAMFRSERIKKKSKPNEQMAQCPICQQFYPLKALEKTHLDECLTLQSLGKKPKISTTFPTESNPHNKSSSRFKVRTPEVDKSSCGETSHVDKYLNSMMSAEHQRLPKINFTSMTQSQIKQKLSSLGLSTNGTRQNMIKRYNHYEMLWNSNFCDSLEPVDEAELKRQLLSWDVSHNKTPQNSSNKGGISKLMIMKSNGKSSSYRKLLENFKNDKFNRKGWMVMFRKDFARLIREAKMKIKTGSSDSSGSVGHSNDGDGVEKVQSDQGTEDQQMEKDQDTVINEDRVAGERNLPNEDSTDADLSRELMDLNEYSKDPPGNN
chain 2: MSTPARRRLMRDFKRMKEDAPPGVSASPLPDNVMVWNAMIIGPADTPYEDGTFRLLLEFDEEYPNKPPHVKFLSEMFHPNVYANGEICLDILQNRWTPTYDVASILTSIQSLFNDPNPASPANVEAATLFKDHKSQYVKRVKETVEKSWEDDMDDMDDDDDDDDDDDDDEAD
B4: Rad6, purified (enzyme, yeast, UniProt P06104 1-172, looked up)
chain: MSTPARRRLMRDFKRMKEDAPPGVSASPLPDNVMVWNAMIIGPADTPYEDGTFRLLLEFDEEYPNKPPHVKFLSEMFHPNVYANGEICLDILQNRWTPTYDVASILTSIQSLFNDPNPASPANVEAATLFKDHKSQYVKRVKETVEKSWEDDMDDMDDDDDDDDDDDDDEAD

Common to all, as to experiment: BLI
Test [1] has as its target N-terminally biotinylated peptide containing the R6BD of Rad18 (yeast).
Test [2] has the same target. This is another data set of the same source.
For test [3], the target named is B2.
The target in the test “PCNA, purified” is B1.
Test [4] deals with B3.
The test “Rad6, purified” deals with B4.

Several values for one entry are separate records, joined by “and”; a condition that tells them apart may be missing. Equal entries are not always repeated. Where two headings read alike, the source gives them in different places. No end group written: not given here. *: point of attachment. Biotin = O=C1N[C@H]2[C@H](CS[C@H]2CCCCC(=O)*)N1; Ahx = NCCCCCC(=O)O

For orientation: Kd means the equilibrium constant for the complex coming apart. Read a low Kd as a tighter complex. Turning to “Rad6, purified (from UniProt P06104 1-172) (enzyme)”, the Kd in test [1] came to 2800 nM; in test [2] it was 2500 nM.

As for B1, the dwell time in test [3] came out at 190 s.

Broadly, the koff is a measure of how fast the partners let go of each other. Low values mean a long-lived complex, high ones a short-lived complex. Take {Biotin-Ahx}-ESSKNLSFGEKRLLFSRKRP [N-terminally biotinylated peptide containing PIP2 of pol η]: the Kd with PCNA, purified was 12000 nM and 13000 nM; in test [4] it was 3700 ± 500 nM. The koff with PCNA, purified came to 0.3 s⁻¹; in test [4], 0.13 s⁻¹; with Rad6, purified it was 0.6 s⁻¹.

As to B2, the dissociation constant (Kd) amounted to 7.2 ± 2.4 nM with PCNA, purified; 1200 ± 100 nM in test [4]; 2300 ± 400 nM with Rad6, purified. The off-rate constant (koff) with PCNA, purified was determined as 0.0054 s⁻¹; in test [4], 0.0008 s⁻¹; with Rad6, purified, 0.02 s⁻¹.

Turning to NKRLKKQGTLESFFKRKAK (not fully specified) [PIP-like motif of Pol32 (peptide)], the Kd in the test with Rad6, purified worked out at 600 nM.

With B3, in test [3], the dwell time is 1300 s.

In the case of B4, the dwell time in test [3] amounted to 50 s.
